From patent US20040123344A1, “Novel gene encoding an f-box protein which regulates leaf longevity in arabidopsis thaliana and mutant gene thereof” (priority 2000, published 2004)

T1: ASK1(1-160) (Arabidopsis thaliana, UniProt Q39255)
T1 construct: constructing the plasmid pGAD424-ASK1(1-160)[3] expressing fusion protein of ASK1 and GAL4-4AD; expressed in transfected cells; host or cells: Saccharomyces cerevisiae HF7c
T1 sequence (Q39255 1-160): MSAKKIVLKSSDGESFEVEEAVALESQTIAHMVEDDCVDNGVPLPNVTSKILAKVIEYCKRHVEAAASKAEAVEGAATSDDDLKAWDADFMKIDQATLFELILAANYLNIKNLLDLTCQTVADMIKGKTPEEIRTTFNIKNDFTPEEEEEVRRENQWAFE

T2: GST-ASK1 fusion protein (Arabidopsis thaliana, UniProt Q39255)
T2 construct: made in house; host or cells: Escherichia coli BL21(DE3) pLysS
T2 sequence (Q39255 1-160): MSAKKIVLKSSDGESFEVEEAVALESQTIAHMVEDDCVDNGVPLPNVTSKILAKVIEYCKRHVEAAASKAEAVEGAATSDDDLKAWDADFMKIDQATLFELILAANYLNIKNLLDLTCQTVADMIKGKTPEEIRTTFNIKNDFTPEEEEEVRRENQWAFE

B1: ORE9 (50-693): fragment of ORE9 containing 50-693th amino acids from which the F-box region was removed (protein)
chain: MKLLSSIEQACDICRLKKLKCSKEKPKCAKCLKNNWECRYSPKTKRSPLTRAHLTEVESRLERLEQLFLLIFPREDLDMILKMDSLQDIKALLTGLFVQDNVNKDAVTDRLASVETDMPLTLRQHRISATSSSEESSNKGQRQLTVSIRGNARDLSLVPDCFRSISHLDLSFLSPWGHTLLASLPIDHQNLLALRLKFCFPFVESLNVYTRSPSSLELLLPQWPRIRHIKLLRWHQRASQIPTGGDFVPIFEHCGGFLESLDLSNFYHWTEDLPPVLLRYADVAARLTRLDLLTASFTEGYKSSEIVSITKSCPNLKTFRVACTFDPRYFEFVGDETLSAVATSSPKLTLLHMVDTASLANPRAIPGTEAGDSAVTAGTLIEVFSGLPNLEELVLDVGKDVKHSGVALEALNSKCKKLRVLKLGQFQGVCSATEWRRLDGVALCGGLQSLSIKNSGDLTDMGLVAIGRGCCKLTTFEIQGCENVTVDGLRTMVSLRSKTLTDVRISCCKNLDTAASLKAIEPICDRIKRLHIDCVWSGSEDEEVEGRVETSEADHEEEDDGYERSQKRCKYSFEEEHCSTSDVNGFCSEDRVWEKLEYLSLWINVGEFLTPLPMTGLDDCPNLEEIRIKIEGDCRGKRRPAEPEFGLSCLALYPKLSKMQLDCGDTIGFALTAPPMQMDLSLWERFFLTGIGSLSLSELDYWPPQDRDVNQRSLSLPGAGLLQECLTLRKLFIHGTAHEHFMNFLLRIPNLRDVQLRADYYPAPENDMSTEMRVGSCSRFEDQLNSRNIID
B2: ORE9 (1-693): complete ORE9 protein, 693 amino acids, F-box motif and 18 LRRs, SEQ ID NO: 2 (protein, listed as Arabidopsis thaliana)
chain: MASTTLSDLPDVILSTISSLVSDSRARNSLSLVSHKFLALERSTRSHLTIRGNARDLSLVPDCFRSISHLDLSFLSPWGHTLLASLPIDHQNLLALRLKFCFPFVESLNVYTRSPSSLELLLPQWPRIRHIKLLRWHQRASQIPTGGDFVPIFEHCGGFLESLDLSNFYHWTEDLPPVLLRYADVAARLTRLDLLTASFTEGYKSSEIVSITKSCPNLKTFRVACTFDPRYFEFVGDETLSAVATSSPKLTLLHMVDTASLANPRAIPGTEAGDSAVTAGTLIEVFSGLPNLEELVLDVGKDVKHSGVALEALNSKCKKLRVLKLGQFQGVCSATEWRRLDGVALCGGLQSLSIKNSGDLTDMGLVAIGRGCCKLTTFEIQGCENVTVDGLRTMVSLRSKTLTDVRISCCKNLDTAASLKAIEPICDRIKRLHIDCVWSGSEDEEVEGRVETSEADHEEEDDGYERSQKRCKYSFEEEHCSTSDVNGFCSEDRVWEKLEYLSLWINVGEFLTPLPMTGLDDCPNLEEIRIKIEGDCRGKRRPAEPEFGLSCLALYPKLSKMQLDCGDTIGFALTAPPMQMDLSLWERFFLTGIGSLSLSELDYWPPQDRDVNQRSLSLPGAGLLQECLTLRKLFIHGTAHEHFMNFLLRIPNLRDVQLRADYYPAPENDMSTEMRVGSCSRFEDQLNSRNIID
B3: ORE9(1-49): fragment of ORE9 containing N-terminal 1-49th amino acids corresponding to the F-box region (protein)
chain: MKLLSSIEQACDICRLKKLKCSKEKPKCAKCLKNNWECRYSPKTKRSPLTRAHLTEVESRLERLEQLFLLIFPREDLDMILKMDSLQDIKALLTGLFVQDNVNKDAVTDRLASVETDMPLTLRQHRISATSSSEESSNKGQRQLTVSMASTTLSDLPDVILSTISSLVSDSRARNSLSLVSHKFLALERSTRSHLT
B4: ORE9 (1-327): part of ORE9 (1-327) containing the F-box region (protein, UniProt Q9SIM9 1-327, looked up, fragment)
chain: MASTTLSDLPDVILSTISSLVSDSRARNSLSLVSHKFLALERSTRSHLTIRGNARDLSLVPDCFRSISHLDLSFLSPWGHTLLASLPIDHQNLLALRLKFCFPFVESLNVYTRSPSSLELLLPQWPRIRHIKLLRWHQRASQIPTGGDFVPIFEHCGGFLESLDLSNFYHWTEDLPPVLLRYADVAARLTRLDLLTASFTEGYKSSEIVSITKSCPNLKTFRVACTFDPRYFEFVGDETLSAVATSSPKLTLLHMVDTASLANPRAIPGTEAGDSAVTAGTLIEVFSGLPNLEELVLDVGKDVKHSGVALEALNSKCKKLRVLKLGQ

Key:
ASK1(1-160) = target: T1, ASK1(1-160); assay: Yeast two-hybrid assay with ASK1; assay type: cell-based; conditions: HF7c yeast; for binding with ASK1 in yeast two-hybrid assay: GAL4-BD fusion
Source text: As expression vectors of expressing GAL4 DNA binding domain (GAL4-BD) and ORE9 fusion protein, plasmids pGBT9-ORE9 (1-49) and pGBT9-ORE9 (50-693) were constructed. The plasmid pGBT9-ORE9 expresses a fragment of ORE9 containing N-terminal 1-49th amino acids corresponding to an F-box region of ORE9, and the plasmid pGBT9-ORE9 (50-693) expresses a fragment of ORE9 containing 50-693th amino acids from which the F-box region was removed.
First, the gene encoding the ORE9 (1-49) fragment was amplified by PCR using a primer represented by SEQ ID NO: 10 and SEQ ID NO: 11, and then inserted into BamHI and PstI restriction enzyme sites of pGBT9 (Clontech, USA) containing a 4-BD gene and a tryptophan auxotrophic selection marker gene (TRP1), thereby constructing the plasmid pGBT9-ORE9 (1-49). Similarly, the plasmid pGBT 9-ORE9 (50-693) was constructed, which expresses an ORE9 (50-693) fragment and a GAL4-BD fusion protein. In this case, oligonucletides represented by SEQ ID NO: 12 and SEQ ID NO: 13 were used as PCR primers to amplify the gene encoding the ORE9 (50-693) fragment.
Meanwhile, regarding ASK1(1-160) and ASK2(1-172) proteins used for identification of binding, pGAD424-ASK1(1-160) and pGAD424-ASK2(1-172) were constructed in such a manner that ASK1(1-160) and ASK2(1-172) are expressed in the form of a fusion protein with a […]. pGTE-ASK1(1-160) containing an ASK1(1-160) gene was digested with BamHI and PstI, and then inserted into pGAD424 (Clontech, USA) containing a GAL4-AD gene and a leucine auxotrophic selection marker gene (LEU2), thereby constructing the plasmid pGAD424-ASK1(1-160)[3] expressing fusion protein of ASK1 and GAL4-4AD. Similarly, the plasmid pGAD424-ASK2(1-172)[4] was constructed by inserting a BamHI/PstI fragment of pGTE-ASK2(1-172) into pGAD424.
Yeast strains, HF7c, were cultured in an YPD (yeast extract, peptone, dextrose) medium or a synthetic minimal medium (SD) containing 2% dextrose.
The HF7c yeast strains grown in the medium were transformed with different combinations of the vectors constructed in the above Example 6-1) ([1+3], [2+3] and [1+4]; see the left upper portion of FIG. 7b), respectively, by the lithium acetate method (Feilotter et al., 1994). The transformants were selected in a synthetic minimal medium containing 2% dextrose. The transformants were cultured in a SD medium from which tryptophan and leucine were removed (see the right upper portion of FIG. 7b), and in a SD medium from which tryptophan, leucine and histidine were removed and which contains 2 mM 3-amino-1,2,4-triazole (3-AT) (see the left lower portion of FIG. 7b).
The transformants were grown in a synthesis minimal medium, and the grown yeast colonies were examined for β-galactosidase activities on a filter paper. […]

GST-ASK1 fusion protein = target: T2, GST-ASK1 fusion protein; assay: In vitro binding assay with GST-ASK1 fusion protein; conditions: 35S-labeled in vitro translation product; glutathione beads; GST as negative control
Source text: In order to examine that ORE9 protein or derivatives thereof directly bind with ASK1, a GST-ASK1 fusion protein and a ^35S-labeled ORE9 protein produced by in vitro translation were subjected to in vitro binding assay. To obtain a glutathione S-transferase (GST) protein and a GST-ASK1 fusion protein, a vector pGEX (APBiotech, Co.) and a vector pGEX-ASK1 were constructed, which express the above proteins, respectively. Artificial sequences represented by SEQ ID NO: 14 and SEQ ID NO: 15 were used as PCR primers to amplify a gene encoding the ASK1 fragment. The resulting PCR product was digested with EcoRI and NcoI restriction enzymes, and inserted into the restriction enzyme sites of the pGEX vector. Escherichia coli BL21(DE3) pLysS was transformed with the resulting two vectors, and GST and GST-ASK1 fusion proteins were expressed. The GST and GST-ASK1 fusion proteins were purified by chromatography with glutathione-Sepharose 4B beads. The purified proteins was subjected to electrophoresis with SDS-polyacryamide gets, dyed with Coomassie blue, and measured for their amount. GST and GST-ASK1 fusion proteins of the same amount were added to glutathione beads, which had been previously washed with 10-fold volume of B buffer (20 mM […], pH 7.6, 150 mM sodium chloride, 10% glycerol, 0.5% NP-40, 1 mM DTT) three times. Then, the resulting proteins were adsorbed 4° C. for one hour using a rotating mixer. The provided beads were washed with 1 ml B buffer three times, and then stored in a state where the ratio of slurries relative to B buffer is 50%.
Meanwhile, a radioactivity-labeled ORE9 (1-693), the mutant type ore9 and ORE9 derivatives (1-327 and 50-693) were prepared using the in vitro transcription/translation system (Promega, USA) and [^35S]-methionine (DuPont NEN, USA). The proteins were quantitatively analyzed with SDS-PAGE and BAS radioanalytic imaging system (Japan). Then, the respective ^35S-labeled translation products of the same amount were mixed with 60 μl GST-adsorbed beads or GST-ASK1 fusion protein-absorbed beads, contained in 1 ml GB buffer (final concentration: 20 mM Tris-HCl, pH 7.5, 0.15% NP-40, 150 mM NaCl, 1 mM EDTA). The resulting beads were cultured in a rotating mixer at 4° C. for two hours, and then washed with 1 ml GB buffer four times. The washed beads were added with 30 μl of 2×SDS sample solutions, boiled for three minutes and then isolated with SDS-PAGE. The resulting gels were dried to dryness, and then exposed to X-ray film.

Row | Molecule | binding with ASK1 in yeast two-hybrid assay (ASK1(1-160)) | binding (co-precipitation) with GST-ASK1 (GST-ASK1 fusion protein) | growth of transformed yeast in histidine deficient medium (ASK1(1-160); GAL4-BD fusion with GAL4-AD-ASK1(1-160), SD medium without tryptophan, leucine, histidine, 2 mM 3-AT) | β-galactosidase activity of transformed yeast (ASK1(1-160); with ASK1(1-160) plasmid, X-gal filter assay)
1 | B1 | fails to bind with ASK1 | fails to bind with GST-ASK1 | – | –
2 | B2 | did not exhibit positive signals for binding to ASK1 | directly bound to ASK1 | – | –
3 | B3 | – | – | grown in the histidine deficient medium | exhibit the β-galactosidase activity
4 | B4 | – | co-precipitated with the GST-ASK1 fusion protein | – | –
